In patent publication US9890400B2, “Method of production of 2,4-dihydroxybutyric acid” (ADISSEO FRANCE S.A.S., priority 2012, dated 2018):

System: CC(C)(COP(=O)(O)OP(=O)(O)OC[C@H]1O[C@@H](n2cnc3c(N)ncnc32)[C@H](O)[C@@H]1OP(=O)(O)O)[C@@H](O)C(=O)NCCC(=O)NCCSC(=O)CCC(=O)O
Assay: Malyl-CoA reductase activity, reductive sense (Assay 1)
Assay type: biochemical, Porphyromonas gingivalis W83
Conditions: other: reductive sense, succinyl-CoA added directly, NADPH, pH 7.5, 37° C.
Protocol: NCBI references of the utilized mcr and sucD protein sequences, and the references for the corresponding natural and synthetic DNA sequences are listed in Table 2.
Expression and purification of Pg-SucD was carried out as described in Example 1 using plasmid pET28-Pgi-sucD.
Malyl-CoA reductase activity was assayed in the reductive and in the oxidative sense of the reaction employing Assay 1 or Assay 2, respectively.
Assay 1 (Reaction Scheme): glyoxylate+acetyl-CoA→malyl-CoA+acetate Malyl-CoA lyase: (L)-Malyl-CoA+NADPH→(L)-Malate semialdehyde+Coenzyme A+NADP Malyl-CoA reductase: Assay 2 (Reaction Scheme): (L)-Malate semialdehyde+Coenzyme A+NADP→(L)-Malyl-CoA+NADPH The reaction mixture according to Assay 1 contained 50 mM MOPS/KOH (pH 7.5), […], and appropriate amounts of purified malyl-CoA reductase or cell extract. Reactions were started by adding glyoxylate. Enzymatic assays were carried out at 37° C. in 96-well flat bottomed microtiter plates in a final volume of 250 μL. The reactions were followed by the characteristic absorption of NADPH at 340 nm (εNADPH=6.22 mM^−1 cm^−1) in a microplate reader (BioRad 680XR).

Porphyromonas gingivalis succinyl-CoA reductase (Pg-SucD), wild type, SEQ ID No. 10 (Porphyromonas gingivalis W83)
Km: 1000 µM
Vmax: 1 µmol/min/mg
